# Key:
# Experiment in all cases: cell-based or functional assay
# [1] = target: HIV-1 Env of pseudovirus 1006_11_C3_1601 (HIV-1)
# [2] = target: HIV-1 Env of pseudovirus 1394C9G1(Rev-) (HIV-1)
# [3] = target: HIV-1 Env of pseudovirus 263-8 (HIV-1)
# [4] = target: HIV-1 Env of pseudovirus 6244_13_B5_4576 (HIV-1)
# [5] = target: HIV-1 Env of pseudovirus 6540.v4.c1 (HIV-1)
# [6] = target: HIV-1 Env of pseudovirus 6545.v4.c1 (HIV-1)
# [7] = target: HIV-1 Env of pseudovirus 6811.v7.c18 (HIV-1)
# [8] = target: HIV-1 Env of pseudovirus 89-F1_2_25 (HIV-1)
# [9] = target: HIV-1 Env of pseudovirus 9004SS_A3_4 (HIV-1)
# [10] = target: HIV-1 Env of pseudovirus 928-28 (HIV-1)
# [11] = target: HIV-1 Env of pseudovirus A07412M1.vrc12 (HIV-1)
# [12] = target: HIV-1 Env of pseudovirus BF1266.431a (HIV-1)
# [13] = target: HIV-1 Env of pseudovirus BJOX010000.06.2 (HIV-1)
# [14] = target: HIV-1 Env of pseudovirus BJOX015000.11.5 (HIV-1)
# [15] = target: HIV-1 Env of pseudovirus C4118.c09 (HIV-1)
# [16] = target: HIV-1 Env of pseudovirus CNE20 (HIV-1)
# [17] = target: HIV-1 Env of pseudovirus CNE30 (HIV-1)
# [18] = target: HIV-1 Env of pseudovirus CNE5 (HIV-1)
# [19] = target: HIV-1 Env of pseudovirus Ce2060_G9 (HIV-1)
# [20] = target: HIV-1 Env of pseudovirus Du422.1 (HIV-1)
# [21] = target: HIV-1 Env of pseudovirus MS208.A1 (HIV-1)
# [22] = target: HIV-1 Env of pseudovirus P0402_c2_11 (HIV-1)
# [23] = target: HIV-1 Env of pseudovirus PVO.4 (HIV-1)
# [24] = target: HIV-1 Env of pseudovirus Q769.d22 (HIV-1)
# [25] = target: HIV-1 Env of pseudovirus QH0692.42 (HIV-1)
# [26] = target: HIV-1 Env of pseudovirus R1166.c01 (HIV-1)
# [27] = target: HIV-1 Env of pseudovirus SC05_8C11_2344 (HIV-1)
# [28] = target: HIV-1 Env of pseudovirus T257-31 (HIV-1)
# [29] = target: HIV-1 Env of pseudovirus T278-50 (HIV-1)
# [30] = target: HIV-1 Env of pseudovirus TRJO4551.58 (HIV-1)
# [31] = target: HIV-1 Env of pseudovirus WITO4160.33 (HIV-1)
# [32] = target: HIV-1 Env of pseudovirus X1632_S2_B10 (HIV-1)
# [33] = target: HIV-1 Env of pseudovirus X2131_C1_B5 (HIV-1)
# [34] = target: HIV-1 Env of pseudovirus ZM135M.PL10a (HIV-1)
# [35] = target: HIV-1 Env of pseudovirus ZM197M.PB7 (HIV-1)
# [36] = target: HIV-1 Env of pseudovirus ZM214M.PL15 (HIV-1)
# [37] = target: HIV-1 Env of pseudovirus ZM249M.PL1 (HIV-1)
substance,measurement,setting,value
PGT151 (antibody),IC50,[1],2.89 µg/mL
same,IC80,[1],> 50 µg/mL
same,IC50,[2],0.022 µg/mL
same,IC80,[2],0.733 µg/mL
same,IC50,[3],> 50 µg/mL
same,IC80,[3],> 50 µg/mL
same,IC50,[4],> 50 µg/mL
same,IC80,[4],> 50 µg/mL
same,"IC50, titer in TZM.bl cells",[5],0.006 µg/mL
same,"IC80, titer in TZM.bl cells",[5],0.03 µg/mL
same,"IC50, titer in TZM.bl cells",[6],0.004 µg/mL
same,"IC80, titer in TZM.bl cells",[6],0.026 µg/mL
same,"IC50, titer in TZM.bl cells",[7],> 50 µg/mL
same,"IC80, titer in TZM.bl cells",[7],> 50 µg/mL
same,"IC50, titer in TZM.bl cells",[8],22.9 µg/mL
same,"IC80, titer in TZM.bl cells",[8],> 50 µg/mL
same,IC50,[9],0.003 µg/mL
same,IC80,[9],0.015 µg/mL
same,IC50,[10],> 50 µg/mL
same,IC80,[10],> 50 µg/mL
same,"IC50, titer in TZM.bl cells",[11],0.246 µg/mL
same,"IC80, titer in TZM.bl cells",[11],> 50 µg/mL
same,IC50,[12],> 50 µg/mL
same,IC80,[12],> 50 µg/mL
same,"IC50, titer in TZM.bl cells",[13],> 50 µg/mL
same,"IC80, titer in TZM.bl cells",[13],> 50 µg/mL
same,"IC50, titer in TZM.bl cells",[14],> 50 µg/mL
same,"IC80, titer in TZM.bl cells",[14],> 50 µg/mL
same,"IC50, titer in TZM.bl cells",[15],> 50 µg/mL
same,"IC80, titer in TZM.bl cells",[15],> 50 µg/mL
same,IC50,[16],> 50 µg/mL
same,IC80,[16],> 50 µg/mL
same,IC50,[17],> 50 µg/mL
same,IC80,[17],> 50 µg/mL
same,"IC50, titer in TZM.bl cells",[18],> 50 µg/mL
same,"IC80, titer in TZM.bl cells",[18],> 50 µg/mL
same,IC50,[19],0.135 µg/mL
same,IC80,[19],> 50 µg/mL
same,IC50,[20],4.6 µg/mL
same,IC80,[20],> 50 µg/mL
same,IC50,[21],< 0.001 µg/mL
same,IC80,[21],0.003 µg/mL
same,"IC50, titer in TZM.bl cells",[22],< 0.001 µg/mL
same,"IC80, titer in TZM.bl cells",[22],0.004 µg/mL
same,IC50,[23],0.017 µg/mL
same,IC80,[23],> 50 µg/mL
same,IC50,[24],> 50 µg/mL
same,IC80,[24],> 50 µg/mL
same,IC50,[25],0.029 µg/mL
same,IC80,[25],0.522 µg/mL
same,"IC50, titer in TZM.bl cells",[26],> 50 µg/mL
same,"IC80, titer in TZM.bl cells",[26],> 50 µg/mL
same,IC50,[27],0.06 µg/mL
same,IC80,[27],> 50 µg/mL
same,IC50,[28],0.003 µg/mL
same,IC80,[28],0.01 µg/mL
same,"IC50, titer in TZM.bl cells",[29],0.13 µg/mL
same,"IC80, titer in TZM.bl cells",[29],> 50 µg/mL
same,IC50,[30],0.496 µg/mL
same,IC80,[30],4.22 µg/mL
same,IC50,[31],0.002 µg/mL
same,IC80,[31],0.021 µg/mL
same,"IC50, titer in TZM.bl cells",[32],0.061 µg/mL
same,"IC80, titer in TZM.bl cells",[32],> 50 µg/mL
same,"IC50, titer in TZM.bl cells",[33],0.007 µg/mL
same,"IC80, titer in TZM.bl cells",[33],0.036 µg/mL
same,IC50,[34],> 50 µg/mL
same,IC80,[34],> 50 µg/mL
same,IC50,[35],0.003 µg/mL
same,IC80,[35],0.033 µg/mL
same,IC50,[36],0.008 µg/mL
same,IC80,[36],0.045 µg/mL
same,IC50,[37],0.004 µg/mL
same,IC80,[37],0.015 µg/mL

# From patent publication US20230002480A1
